# T1: recombinant gH/gL/UL128/UL130/UL131A pentamer (wild type) (human cytomegalovirus | human …)
# T1 chain 1: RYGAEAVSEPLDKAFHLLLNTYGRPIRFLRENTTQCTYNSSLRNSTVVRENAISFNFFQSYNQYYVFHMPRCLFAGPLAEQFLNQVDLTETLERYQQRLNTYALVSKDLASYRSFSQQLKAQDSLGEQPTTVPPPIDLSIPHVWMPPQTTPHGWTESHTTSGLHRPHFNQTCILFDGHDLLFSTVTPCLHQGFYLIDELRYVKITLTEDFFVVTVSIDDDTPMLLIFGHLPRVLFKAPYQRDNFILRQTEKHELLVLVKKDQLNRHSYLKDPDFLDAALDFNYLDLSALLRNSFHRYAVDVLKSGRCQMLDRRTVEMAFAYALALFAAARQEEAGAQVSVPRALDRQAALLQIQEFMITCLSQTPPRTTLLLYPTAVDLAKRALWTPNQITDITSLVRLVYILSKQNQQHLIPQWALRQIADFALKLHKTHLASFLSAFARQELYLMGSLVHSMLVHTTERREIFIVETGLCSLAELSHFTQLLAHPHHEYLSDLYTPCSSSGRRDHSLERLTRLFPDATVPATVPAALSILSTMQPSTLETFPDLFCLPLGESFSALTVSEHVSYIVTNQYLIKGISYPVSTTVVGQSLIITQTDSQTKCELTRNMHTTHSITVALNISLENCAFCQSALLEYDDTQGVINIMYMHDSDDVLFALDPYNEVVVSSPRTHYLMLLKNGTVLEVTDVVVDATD
# T1 chain 2: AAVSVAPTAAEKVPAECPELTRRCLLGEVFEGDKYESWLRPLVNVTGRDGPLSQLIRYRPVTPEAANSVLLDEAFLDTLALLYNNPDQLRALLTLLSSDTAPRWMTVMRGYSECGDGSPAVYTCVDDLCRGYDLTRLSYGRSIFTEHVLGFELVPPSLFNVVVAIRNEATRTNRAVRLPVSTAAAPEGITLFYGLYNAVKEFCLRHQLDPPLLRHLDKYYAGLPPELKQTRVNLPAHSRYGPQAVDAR
# T1 chain 3: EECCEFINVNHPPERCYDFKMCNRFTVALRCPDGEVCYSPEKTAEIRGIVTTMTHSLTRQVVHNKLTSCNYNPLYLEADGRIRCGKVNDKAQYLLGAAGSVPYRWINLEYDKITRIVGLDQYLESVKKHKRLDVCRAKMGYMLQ
# T1 chain 4: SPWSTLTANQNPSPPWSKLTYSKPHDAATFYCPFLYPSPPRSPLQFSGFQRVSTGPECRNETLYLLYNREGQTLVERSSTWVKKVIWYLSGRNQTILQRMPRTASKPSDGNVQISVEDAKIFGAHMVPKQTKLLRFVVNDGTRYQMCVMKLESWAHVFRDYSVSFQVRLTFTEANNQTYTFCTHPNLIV
# T1 chain 5: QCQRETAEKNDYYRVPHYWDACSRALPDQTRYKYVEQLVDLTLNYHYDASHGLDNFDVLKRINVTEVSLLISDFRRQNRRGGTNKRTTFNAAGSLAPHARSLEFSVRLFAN
# Biological target: T1, recombinant gH/gL/UL128/UL130/UL131A …
# Test: SPR
binder,measurement,value
"MAb 9I6 (antibody, V domains shown) VH: EVQLVQSGAEVKKPGESLKISCRESGDTFPAYWIAWVRQMPGKGLEWMGIIYPIDSETTYSPSFQGQVTISADKSINTAYLQWSSLKASDSAIYYCARGTSTGLREAFHIWGQGTMVTVSS VL: DVVMTQSPLSLAVTLGQPAYISCRSSQSLGYSDGNTYLNWFQQRPGQSPRRLIYEVSNRDSGVPDRFSGSGSGTDFTLKISRVEAEDVGTYYCMQGTHWPPMCSFGQGTKLEIK",koff,0.000151 s⁻¹
